The target of assay [1] is T1, recombinant human CD3ε/δ protein (ACRO systems, CDD-H52W1) (human, UniProt P07766 23-126; P04234 22-105).
T1 construct: Bought reagent
In words: BLI, antibody captured on AHC sensor. The procedure: (§1) Antibodies were first captured onto an anti-human IgG Fc coated AHC biosensor (Anti-hIgG Fc, Sartorius, 18-5060). Antibodies were diluted to 5 μg/mL and 1.5 nm protein was coupled to the AHC sensor surface in 0.02% PBST.
(§2) After the sensor captures the antibodies, it is used to bind and dissociate with different concentrations of analytes to obtain the KD value of the interaction. The experimental parameters are as follows: Baseline1: 60 s, Loading: 240 s, Baseline2: 180 s, Association: 240 s, Dissociation: 600 s, High sensitivity kinetics: 2 Hz. Kinetic constants were derived based on the rate equation for 1:1 Langmuir binding to obtain equilibrium dissociation constants (KD). The Data Analysis HT 12 software (Sartorius, 50-5029) was used to simultaneously fit binding and dissociation curves to calculate Kₒₙ, and Koff. The affinity KD was calculated based on the below formula: KD=Koff/Kₒₙ.
(Biolayer interferometry detects binding as a change in optical thickness at a sensor tip.)

Assay [2] addresses T2, recombinant human EGFR protein (ACRO systems, EGR-H5222) (human, UniProt P00533 25-645).
T2 construct: Bought reagent
In words: BLI, antibody captured on AHC sensor. As for the experimental part:
as §1, §2

Assay [3] deals with epidermal growth factor receptor (EGFR) on human tumor cells (human, UniProt P00533 25-1210). In words: cell-based or functional assay.
Assay [4] has as its target T3, keyhole limpet haemocyanin.
T3 construct: Bought reagent, coated at 5 ug/mL; also called KLH
The assay can be described thus: ELISA, KLH coated, 100 nM antibody. The procedure: (§3) The experimental steps are as follows [0420] […] (4) 50 μl anti-human IgG-HRP conjugate (Sigma, AP113P, 1:8000 dilution) was added to each well; the plate was incubated for 1 h at room temperature and washed 6 times with 0.05% PBST; [0424] (5) 50 μl of TMB chromogenic solution (Biopanda, TMB-S-001) was added to each well and incubated at room temperature for 10-15 minutes for color development; [0425] (6) 50 μl of 1M HCl was added to each well to stop the color development, and the absorbance at 450 nm was measured using a microplate reader (Biotek, SYNERGY LX); Data analysis: If the ratio between the absorbance of the antibody and the absorbance of the blank control PBS is ≥3, there is too much non-specific binding.
For orientation: In an ELISA, binding on a coated surface is turned into a signal by an enzyme label.

The next assay addresses T4, Insulin.
T4 construct: Bought reagent, coated at 5 ug/mL
The assay can be described thus: ELISA, insulin coated, 100 nM antibody. The procedure:
as §3

The target in assay [5] is T5, recombinant human c-Met protein (human, UniProt P08581 25-932).
T5 construct: Bought
In words: BLI, antibody on AHC sensor. The procedure:
as §1
as §2, with “Kₒₙ” for “Kₒₙ,”

T1 sequence (P07766 23-126, stated change not applied, chain 1 of 2): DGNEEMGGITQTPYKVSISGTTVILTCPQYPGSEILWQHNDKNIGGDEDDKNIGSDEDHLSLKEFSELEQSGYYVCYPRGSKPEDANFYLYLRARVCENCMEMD
T1 sequence (P04234 22-105, stated change not applied, chain 2 of 2): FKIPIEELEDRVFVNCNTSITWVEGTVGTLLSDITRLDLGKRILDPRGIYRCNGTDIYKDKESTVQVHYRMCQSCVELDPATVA
T5 sequence (P08581 25-932 limits assumed): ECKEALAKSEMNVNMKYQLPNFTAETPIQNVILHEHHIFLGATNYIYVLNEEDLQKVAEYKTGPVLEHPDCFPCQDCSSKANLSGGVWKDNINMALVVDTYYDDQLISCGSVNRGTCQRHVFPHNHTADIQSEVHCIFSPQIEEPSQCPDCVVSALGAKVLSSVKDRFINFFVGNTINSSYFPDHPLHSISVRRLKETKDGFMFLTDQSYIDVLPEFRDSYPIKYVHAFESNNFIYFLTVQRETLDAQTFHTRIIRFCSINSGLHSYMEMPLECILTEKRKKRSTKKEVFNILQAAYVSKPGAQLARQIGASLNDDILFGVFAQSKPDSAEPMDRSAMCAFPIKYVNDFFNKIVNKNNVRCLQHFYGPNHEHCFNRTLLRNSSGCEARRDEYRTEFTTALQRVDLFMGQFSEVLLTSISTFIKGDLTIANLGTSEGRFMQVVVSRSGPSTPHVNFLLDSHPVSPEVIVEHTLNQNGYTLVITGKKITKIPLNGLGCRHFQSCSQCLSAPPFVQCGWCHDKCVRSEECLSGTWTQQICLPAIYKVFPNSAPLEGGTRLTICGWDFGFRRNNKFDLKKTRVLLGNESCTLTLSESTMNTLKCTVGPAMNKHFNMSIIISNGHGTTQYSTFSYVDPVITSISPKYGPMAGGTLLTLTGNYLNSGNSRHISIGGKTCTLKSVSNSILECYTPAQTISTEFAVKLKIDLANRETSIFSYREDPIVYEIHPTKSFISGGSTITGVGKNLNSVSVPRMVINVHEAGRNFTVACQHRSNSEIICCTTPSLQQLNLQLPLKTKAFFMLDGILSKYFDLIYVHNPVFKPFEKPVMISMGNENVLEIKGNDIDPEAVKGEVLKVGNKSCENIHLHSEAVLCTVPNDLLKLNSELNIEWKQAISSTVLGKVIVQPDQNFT

B1: EGFR-BsAb bispecific control antibody (TA1-Fab CD3 x EGFR VHH) (bispecific antibody, human IgG4 S228P, kappa, F234A L235A)
heavy: EVKLLESGGGLVQPKGSLKLSCAASGFTFNTYAMNWVRQAPGKGLEWVARIRSKYNNYATYYADSVKDRFTISRDDSQSILYLQMNNLKTEDTAMYYCVRHGNFGNSYVSWFAYWGQGTLVTVSSASTKGPSVFPLAPCSRSTSESTAALGCLVKDYFPEPVTVSWNSGALTSGVHTFPAVLQSSGLYSLSSVVTVPSSSLGTKTYTCNVDHKPSNTKVDKRVESKYGPPCPPCPAPEAAGGPSVFLFPPKPKDTLMISRTPEVTCVVVDVSQEDPEVQFNWYVDGVEVHNAKTKPREEQFNSTYRVVSVLTVLHQDWLNGKEYKCKVSNKGLPSSIEKTISKAKGQPREPQVYTLPPCQEEMTKNQVSLWCLVKGFYPSDIAVEWESNGQPENNYKTTPPVLDSDGSFFLYSRLTVDKSRWQEGNVFSCSVMHEALHNHYTQKSLSLSL
chain: QVQLQESGGGSVQAGGSLKLSCAASGRGFSRYAMGWFRQAPGQDREFVATISWTNSTDYADSVKGRFAISRDNAKNTAYLQMNSLKPEDTAVYYCAADKWASSTRSIDYDYWGQGIQVTVSSESKYGPPCPPCPAPEAAGGPSVFLFPPKPKDTLMISRTPEVTCVVVDVSQEDPEVQFNWYVDGVEVHNAKTKPREEQFNSTYRVVSVLTVLHQDWLNGKEYKCKVSNKGLPSSIEKTISKAKGQPREPQVCTLPPSQEEMTKNQVSLSCAVKGFYPSDIAVEWESNGQPENNYKTTPPVLDSDGSFFLVSRLTVDKSRWQEGNVFSCSVMHEALHNRFTQKSLSLSL
light: QAVVTQESALTTSPGETVTLTCRSSTGAVTTSNYANWVQEKPDHLFTGLIGGTNKRAPGVPARFSGSLIGDKAALTITGAQTEDEAIYFCALWYSNLWVFGGGTKVEIKRTVAAPSVFIFPPSDEQLKSGTASVVCLLNNFYPREAKVQWKVDNALQSGNSQESVTEQDSKDSTYSLSSTLTLSKADYEKHKVYACEVTHQGLSSPVTKSFNRGEC
notes: also called anti-EGFR-BsAb
For B1, in assay [1], the dissociation constant Kd (as a rule, the concentration at which binding is half-saturated) was 9.03 nM; the off-rate (koff) (usually a measure of how fast the partners let go of each other) was determined as 0.000748 s⁻¹; the kon (commonly a measure of how fast the partners come together) came out at 82900 M⁻¹ s⁻¹. Also, in assay [2], the dissociation constant (Kd) is 9.85 nM, the koff turned out to be 0.00305 s⁻¹ and the kon came to 309000 M⁻¹ s⁻¹. In assay [3], the “killing EC50, NCI-H157 cells (EGFR-positive)” value worked out at 0.02 nM; the “killing EC50, NCI-H1299 cells (EGFR-positive)” value stood at 0.0318 nM; the “killing EC50, NCI-H1395 cells (EGFR-positive)” value is 0.0108 nM.

B2: CEA-CAM6-BsAb bispecific control antibody (TA1-Fab anti-CD3 x CEA-CAM6 VHH) (bispecific antibody, human IgG4 S228P, kappa, F234A L235A)
heavy: EVKLLESGGGLVQPKGSLKLSCAASGFTFNTYAMNWVRQAPGKGLEWVARIRSKYNNYATYYADSVKDRFTISRDDSQSILYLQMNNLKTEDTAMYYCVRHGNFGNSYVSWFAYWGQGTLVTVSSASTKGPSVFPLAPCSRSTSESTAALGCLVKDYFPEPVTVSWNSGALTSGVHTFPAVLQSSGLYSLSSVVTVPSSSLGTKTYTCNVDHKPSNTKVDKRVESKYGPPCPPCPAPEAAGGPSVFLFPPKPKDTLMISRTPEVTCVVVDVSQEDPEVQFNWYVDGVEVHNAKTKPREEQFNSTYRVVSVLTVLHQDWLNGKEYKCKVSNKGLPSSIEKTISKAKGQPREPQVYTLPPCQEEMTKNQVSLWCLVKGFYPSDIAVEWESNGQPENNYKTTPPVLDSDGSFFLYSRLTVDKSRWQEGNVFSCSVMHEALHNHYTQKSLSLSL
chain: QVKLEESGGGLVQAGGSLRLSCRTSGRTNSVYTMGWFRQAPGKEREFVAQIMWGAGTNTHYADSVKGRFTISRDSAESTVYLQMNSLKPEDTAVYYCAANRGIPIAGRQYDYWGQGTQVTVSSESKYGPPCPPCPAPEAAGGPSVFLFPPKPKDTLMISRTPEVTCVVVDVSQEDPEVQFNWYVDGVEVHNAKTKPREEQFNSTYRVVSVLTVLHQDWLNGKEYKCKVSNKGLPSSIEKTISKAKGQPREPQVCTLPPSQEEMTKNQVSLSCAVKGFYPSDIAVEWESNGQPENNYKTTPPVLDSDGSFFLVSRLTVDKSRWQEGNVFSCSVMHEALHNRFTQKSLSLSL
light: QAVVTQESALTTSPGETVTLTCRSSTGAVTTSNYANWVQEKPDHLFTGLIGGTNKRAPGVPARFSGSLIGDKAALTITGAQTEDEAIYFCALWYSNLWVFGGGTKVEIKRTVAAPSVFIFPPSDEQLKSGTASVVCLLNNFYPREAKVQWKVDNALQSGNSQESVTEQDSKDSTYSLSSTLTLSKADYEKHKVYACEVTHQGLSSPVTKSFNRGEC
notes: IgG4
B2: the results for the “absorbance ratio to PBS blank” value (in assay [4]; with Insulin) were 0.45 and 0.87, respectively.

B3: c-Met-BsAb bispecific control antibody (TA1F anti-CD3 Fab x c-Met VHH) (bispecific antibody, IgG4, not shown: a dimerising Fc or GST)
heavy: EVKLLESGGGLVQPKGSLKLSCAASGFTFNTYAMNWVRQAPGKGLEWVARIRSKYNNYATYYADSVKDRFTISRDDSQSILYLQMNNLKTEDTAMYYCVRHGNFGNSYVSWFAYWGQGTLVTVSSASTKGPSVFPLAPCSRSTSESTAALGCLVKDYFPEPVTVSWNSGALTSGVHTFPAVLQSSGLYSLSSVVTVPSSSLGTKTYTCNVDHKPSNTKVDKRV
chain: QVKLEESGGDLVQPGGSLRLSCVGSGSIFSYTAMGWYRQAPGKQRELVATIHSGGNINYADSVKGRFTISRDNTENTVYLQMNSLKPEDTAVYYCWSLLVGPETRYKDFNFWGRGTQVTVSS
light: QAVVTQESALTTSPGETVTLTCRSSTGAVTTSNYANWVQEKPDHLFTGLIGGTNKRAPGVPARFSGSLIGDKAALTITGAQTEDEAIYFCALWYSNLWVFGGGTKVEIKRTVAAPSVFIFPPSDEQLKSGTASVVCLLNNFYPREAKVQWKVDNALQSGNSQESVTEQDSKDSTYSLSSTLTLSKADYEKHKVYACEVTHQGLSSPVTKSFNRGEC
notes: the text gives VH-CH1-Hinge-Fc (IgG4) and VL-CL (kappa)
Turning to B3, in assay [5], the Kd amounted to 0.523 nM, the koff came out at 0.000367 s⁻¹ and the kon came out at 702000 M⁻¹ s⁻¹.

B4: HER2-BsAb bispecific control antibody (TA1-Fab anti-CD3 x HER2 VHH) (bispecific antibody, human IgG4 S228P, kappa, F234A L235A)
heavy: EVKLLESGGGLVQPKGSLKLSCAASGFTFNTYAMNWVRQAPGKGLEWVARIRSKYNNYATYYADSVKDRFTISRDDSQSILYLQMNNLKTEDTAMYYCVRHGNFGNSYVSWFAYWGQGTLVTVSSASTKGPSVFPLAPCSRSTSESTAALGCLVKDYFPEPVTVSWNSGALTSGVHTFPAVLQSSGLYSLSSVVTVPSSSLGTKTYTCNVDHKPSNTKVDKRVESKYGPPCPPCPAPEAAGGPSVFLFPPKPKDTLMISRTPEVTCVVVDVSQEDPEVQFNWYVDGVEVHNAKTKPREEQFNSTYRVVSVLTVLHQDWLNGKEYKCKVSNKGLPSSIEKTISKAKGQPREPQVYTLPPCQEEMTKNQVSLWCLVKGFYPSDIAVEWESNGQPENNYKTTPPVLDSDGSFFLYSRLTVDKSRWQEGNVFSCSVMHEALHNHYTQKSLSLSL
chain: QVQLVQSGGGLVQAGGSLRLSCAASGRTFSSYAMAWFRQAPGKEREFVAAISWSGANIYVADSVKGRFTISRDNAKDTVYLQMNSLKPEDTAVYYCAVKLGFAPVEERQYDYWGQGTQVTVSSESKYGPPCPPCPAPEAAGGPSVFLFPPKPKDTLMISRTPEVTCVVVDVSQEDPEVQFNWYVDGVEVHNAKTKPREEQFNSTYRVVSVLTVLHQDWLNGKEYKCKVSNKGLPSSIEKTISKAKGQPREPQVCTLPPSQEEMTKNQVSLSCAVKGFYPSDIAVEWESNGQPENNYKTTPPVLDSDGSFFLVSRLTVDKSRWQEGNVFSCSVMHEALHNRFTQKSLSLSL
light: QAVVTQESALTTSPGETVTLTCRSSTGAVTTSNYANWVQEKPDHLFTGLIGGTNKRAPGVPARFSGSLIGDKAALTITGAQTEDEAIYFCALWYSNLWVFGGGTKVEIKRTVAAPSVFIFPPSDEQLKSGTASVVCLLNNFYPREAKVQWKVDNALQSGNSQESVTEQDSKDSTYSLSSTLTLSKADYEKHKVYACEVTHQGLSSPVTKSFNRGEC
notes: IgG4
As to B4, the entries for the “absorbance ratio to PBS blank” value (in assay [4]; with Insulin) were 2.31 and 1.69, respectively.

For the origin of these results see patent US20240409635A1 (VIBRANT PHARMA, published 2024).
